The results in this text go back to patent US20230138315A1 (JIANGSU HENGRUI MEDICINE, published 2023).

Where a chain is given by its changes, count along the chain named. Numbers in names are those of the source.

For experiment [1], the target named is T1, cynomolgus monkey ANGPTL3(17-460)-His (cynomolgus monkey, UniProt Q9Y5C1 17-460 (human entry), biotin-labelled in the ELISA and HTRF assays (sites not given)).
T1 chain: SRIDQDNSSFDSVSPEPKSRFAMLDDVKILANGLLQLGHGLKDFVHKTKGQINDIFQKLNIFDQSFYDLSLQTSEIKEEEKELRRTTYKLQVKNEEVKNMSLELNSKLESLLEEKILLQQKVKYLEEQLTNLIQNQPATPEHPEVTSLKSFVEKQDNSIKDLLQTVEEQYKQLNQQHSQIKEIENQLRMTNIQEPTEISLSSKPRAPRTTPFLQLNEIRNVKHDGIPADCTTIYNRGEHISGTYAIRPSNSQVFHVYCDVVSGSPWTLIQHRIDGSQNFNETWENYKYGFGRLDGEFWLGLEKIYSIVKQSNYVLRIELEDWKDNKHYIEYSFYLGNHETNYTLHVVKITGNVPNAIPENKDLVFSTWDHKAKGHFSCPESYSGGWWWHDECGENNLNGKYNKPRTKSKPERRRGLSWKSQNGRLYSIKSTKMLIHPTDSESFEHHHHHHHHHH
The experiment is described as follows: cell-based or functional assay.

The target of another experiment is T2, rat ANGPTL3(17-455)-His (rat, biotin-labelled in the ELISA and HTRF assays (sites not given)).
T2 chain: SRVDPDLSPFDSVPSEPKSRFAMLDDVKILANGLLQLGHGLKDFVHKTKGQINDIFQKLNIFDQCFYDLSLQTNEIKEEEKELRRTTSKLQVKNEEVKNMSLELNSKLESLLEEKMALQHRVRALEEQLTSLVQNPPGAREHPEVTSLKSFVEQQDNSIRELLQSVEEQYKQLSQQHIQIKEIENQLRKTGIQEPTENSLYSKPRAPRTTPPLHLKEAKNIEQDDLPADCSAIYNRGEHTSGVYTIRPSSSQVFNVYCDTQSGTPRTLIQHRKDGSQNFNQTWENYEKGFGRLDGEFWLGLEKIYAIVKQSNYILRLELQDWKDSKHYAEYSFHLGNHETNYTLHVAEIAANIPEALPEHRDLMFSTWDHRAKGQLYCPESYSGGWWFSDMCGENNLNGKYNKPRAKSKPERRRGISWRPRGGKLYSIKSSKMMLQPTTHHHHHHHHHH
Nature of the experiment: cell-based or functional assay.

Experiment [2] has as its target T3, human ANGPTL3(17-170)-Flag-His (human).
T3 chain: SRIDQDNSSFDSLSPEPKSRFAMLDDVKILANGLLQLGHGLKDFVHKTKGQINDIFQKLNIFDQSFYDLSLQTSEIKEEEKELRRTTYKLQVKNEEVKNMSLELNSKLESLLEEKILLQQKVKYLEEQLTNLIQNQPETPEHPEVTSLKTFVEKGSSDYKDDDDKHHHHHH
Nature of the experiment: cell-based or functional assay.

Experiment [3] has as its target T4, mouse ANGPTL3(17-455)-His (mouse, UniProt Q9R182 17-455, biotin-labelled in the ELISA and HTRF assays (sites not given)).
T4 sequence: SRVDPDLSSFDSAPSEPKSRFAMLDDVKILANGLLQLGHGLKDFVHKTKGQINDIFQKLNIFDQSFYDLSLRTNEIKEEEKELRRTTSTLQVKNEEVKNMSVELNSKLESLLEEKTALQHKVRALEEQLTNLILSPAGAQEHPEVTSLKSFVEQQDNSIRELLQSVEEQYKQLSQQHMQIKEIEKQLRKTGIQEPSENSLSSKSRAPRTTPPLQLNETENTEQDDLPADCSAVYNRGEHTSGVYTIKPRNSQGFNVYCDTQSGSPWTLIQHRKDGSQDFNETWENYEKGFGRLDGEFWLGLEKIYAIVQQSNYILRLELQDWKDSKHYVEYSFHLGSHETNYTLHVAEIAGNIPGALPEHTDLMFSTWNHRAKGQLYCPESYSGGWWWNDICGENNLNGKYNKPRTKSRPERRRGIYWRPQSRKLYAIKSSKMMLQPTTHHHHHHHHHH
Nature of the experiment: cell-based or functional assay.

The target of experiment [4] is T1, cynomolgus monkey ANGPTL3(17-460)-His. The experiment is described as follows: SPR (Biacore T200); antibody captured on Protein A chip, antigen in flow; 1:1 Langmuir fit. The source says: (§1) Biacore was used to determine the affinity of the test anti-ANGPTL3 antibodies for human, monkey, rat and mouse ANGPTL3, and the method is as follows:
(§2) Reaction signals were detected in real time using a Biacore T200 instrument to obtain association and dissociation curves. After each cycle of dissociation was completed, the biochip was washed and regenerated using a glycine-hydrochloric acid regeneration solution (Cat. # BR-1003-54, GE, pH 1.5). The running buffer for the experiment was 1×HBS-EP buffer (Cat. # BR-1001-88, GE). The data obtained from the experiment were fitted with the (1:1) Langmuir model using GE Biacore T200 evaluation software (version 3.0) to obtain affinity values.
On the technique in general: SPR reads the build-up and loss of mass on a sensor chip optically.

Experiment [5] has as its target T5, human-ANGPTL3 (R&D, 3829-AN) (human, UniProt Q9Y5C1 17-460).
T5 construct: Bought antigen used in the Biacore assay
T5 sequence (looked up): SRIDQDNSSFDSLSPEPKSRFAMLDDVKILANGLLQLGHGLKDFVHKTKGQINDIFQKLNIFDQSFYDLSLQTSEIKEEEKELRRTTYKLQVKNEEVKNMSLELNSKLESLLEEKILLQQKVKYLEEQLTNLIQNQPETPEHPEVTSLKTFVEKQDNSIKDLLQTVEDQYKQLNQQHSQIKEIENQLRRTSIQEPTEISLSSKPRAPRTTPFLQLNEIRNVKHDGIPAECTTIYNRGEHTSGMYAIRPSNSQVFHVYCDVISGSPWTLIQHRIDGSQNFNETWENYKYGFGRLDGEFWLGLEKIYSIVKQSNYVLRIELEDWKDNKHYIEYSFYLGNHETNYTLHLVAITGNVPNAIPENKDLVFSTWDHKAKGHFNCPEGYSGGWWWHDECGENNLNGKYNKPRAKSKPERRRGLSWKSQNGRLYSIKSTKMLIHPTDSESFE
Described as above.
Excerpt: as §1, §2

B1: P3G (antibody, human IgG4 S228P, kappa, V domains shown)
VH: QVQLVQSGAEVKKPGASVKVSCKSSGYTFTDYYLHWLRQAPGQGPEWMGWISPNSGGTSYAQKFQGRVTMTRDTSISTAYMELSSLRSDDTAVYYCARDIATLGNFFTYGMDVWGQGTTVTVSS
VL: DIQLTQSPSSLSASVGDRVTITCRASQGIRNDLGWYQQKPGKAPKLLIYAASSLQSGVPSRFSGSGSGTDFTLTISSLQPEDFATYYCQQSYSSWTFGQGTKVEIKR
notes: also called anti-ANGPTL3 antibody P3G; P3 (variable regions)
One may read the Kd as a measure of binding affinity in units of concentration. By koff is commonly meant the first-order rate constant of dissociation. A word on the kon: it is a measure of how fast the partners come together. With B1, the “IC50 of blocking the inhibition of bovine LPL enzyme activity by ANGPTL3” value in experiment [1] was determined as 42.4 nM; in the experiment with rat ANGPTL3(17-455)-His it was 66.5 nM; in experiment [2], 68.9 nM; in experiment [3], 168 nM. The dissociation constant Kd is 0.204 nM in experiment [4] and 0.285 nM in experiment [5]. In addition, the koff is 0.000847 s⁻¹ in experiment [4] and 0.000731 s⁻¹ in experiment [5]. Further, the kon in experiment [4] was 4.15e+06 M⁻¹ s⁻¹; in experiment [5], 2.56e+06 M⁻¹ s⁻¹.

B2: P8G (antibody, human IgG4 S228P, kappa, V domains shown)
VH: QVQLVQSGAEVKKPGASVKVSCKASGYTFTSYDINWVRQAPGQGLEWVGLINPRDDSTSYAQKFQGRVTMTRDTSTSTMYMELSSLRSEDTAVYFCARDLGSIREVLYYGMDVWGQGTTVTVSS
VL: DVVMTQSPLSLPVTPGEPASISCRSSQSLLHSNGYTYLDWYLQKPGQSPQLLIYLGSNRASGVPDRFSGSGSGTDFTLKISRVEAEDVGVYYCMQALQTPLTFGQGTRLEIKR
notes: also called anti-ANGPTL3 antibody P8G; P8 (variable regions)
Consider B2, for which, in experiment [4], the Kd came to 0.0593 nM, the koff turned out to be 0.000497 s⁻¹ and the kon was 8.37e+06 M⁻¹ s⁻¹. Moreover, in experiment [5], the dissociation constant (Kd) was 0.151 nM, the koff was determined as 0.000333 s⁻¹ and the kon came out at 2.2e+06 M⁻¹ s⁻¹.

B3: P8BG (antibody, human IgG4 S228P, kappa, V domains shown)
VH: B2 VH with D55E
VL: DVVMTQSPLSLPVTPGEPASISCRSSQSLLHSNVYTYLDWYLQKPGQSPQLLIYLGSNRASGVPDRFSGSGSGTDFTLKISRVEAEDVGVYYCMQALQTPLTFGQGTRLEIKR
notes: also called anti-ANGPTL3 antibody P8BG; P8B (variable regions)
For the molecule B3, the “IC50 of blocking the inhibition of bovine LPL enzyme activity by ANGPTL3” value amounted to 53.6 nM in experiment [1], 132 nM with rat ANGPTL3(17-455)-His, 75.3 nM in experiment [2] and 41.5 nM in experiment [3]. For the same molecule, the dissociation constant Kd in experiment [4] turned out to be 0.0769 nM; in experiment [5] it was 0.045 nM. Also, the values for the off-rate constant (koff) in experiment [4] and in experiment [5] were 0.000398 s⁻¹ and 0.000276 s⁻¹, respectively. The figures for the kon in experiment [4] and in experiment [5] were 5.18e+06 M⁻¹ s⁻¹ and 6.14e+06 M⁻¹ s⁻¹, respectively.
